Paper PMC9858708, “Genetic and Molecular Interactions between H^ΔCT, a Novel Allele of the Notch Antagonist Hairless, and the Histone Chaperone Asf1 in Drosophila melanogaster” (Genes, 2023)

T1: Asf1 (1–154) (D. melanogaster, UniProt Q9V464 1-154)
T1 construct: Anti-silencing factor 1 (Asf1), D. melanogaster, amino acids 1-154; modified pET-14p construct
T1 sequence (looked up): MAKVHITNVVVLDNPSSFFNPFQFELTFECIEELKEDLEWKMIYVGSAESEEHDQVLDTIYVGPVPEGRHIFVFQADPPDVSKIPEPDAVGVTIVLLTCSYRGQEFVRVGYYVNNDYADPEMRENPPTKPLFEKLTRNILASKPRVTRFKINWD

T2: Asf1-HA-MBP (full-length Drosophila Asf1) (Drosophila melanogaster, UniProt Q9V464 1-218)
T2 construct: Anti-silencing factor 1 (Asf1), Drosophila melanogaster, full length; HA-tagged region derived by PCR from the pJG4-5 construct; also called Asf-HA; HA-tagged Asf1; source: E. coli UT580, purified (amylose beads); not shown: HA, N-terminal, kept
T2 sequence (looked up): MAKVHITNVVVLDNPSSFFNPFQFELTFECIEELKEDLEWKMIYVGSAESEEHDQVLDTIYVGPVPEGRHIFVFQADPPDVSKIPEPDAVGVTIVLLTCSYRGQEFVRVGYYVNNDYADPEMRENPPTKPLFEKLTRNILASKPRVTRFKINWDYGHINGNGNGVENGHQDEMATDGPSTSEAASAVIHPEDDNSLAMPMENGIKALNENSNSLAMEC


Experiments:
Conditions in all cases: both partners purified
Asf1 (1–154) [1] = target: T1, Asf1 (1–154); assay: ITC; MicroCal VP-ITC, 25 °C, 20 mM HEPES pH 7.5, 150 mM NaCl; typically 100 μM Hairless in the syringe and 10 μM Asf1 in the cell; one-site binding model
Asf1 (1–154) [2] = target: T1, Asf1 (1–154); assay: as above; remark: listed apart in the source
[3] = target: T2, Asf1-HA-MBP (full-length Drosophila …); assay: co-IP; Myc-trap: purified Asf1-HA-MBP or Su(H)-GST mixed 1:1 with NTCTmyc-MBP peptides, about 10 min at 4 °C, 150 mM NaCl, 50 mM Tris pH7.5, 0.1% SDS; Myc-tagged H peptides trapped on anti-Myc nanobody magnetic beads 1 h at 4 °C; Western blot with anti-Myc, anti-HA, anti-GST
[4] = target: T3, Su(H)-GST fusion protein (Su(H) codons 288–594) (Drosophila melanogaster, UniProt P28159 288-594); assay: as above
T3 construct: also called GST Su(H); GST-tagged Su(H); source: E. coli UT580, purified (glutathione-sepharose 4B)
T3 sequence (P28159 288-594): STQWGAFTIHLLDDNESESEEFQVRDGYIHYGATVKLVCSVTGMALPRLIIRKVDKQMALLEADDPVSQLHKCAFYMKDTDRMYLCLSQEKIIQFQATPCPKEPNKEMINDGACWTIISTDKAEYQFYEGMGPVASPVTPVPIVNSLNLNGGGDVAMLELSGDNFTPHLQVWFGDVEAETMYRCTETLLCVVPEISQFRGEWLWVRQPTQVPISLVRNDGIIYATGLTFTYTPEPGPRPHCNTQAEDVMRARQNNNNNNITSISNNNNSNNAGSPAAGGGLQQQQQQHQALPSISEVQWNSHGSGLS

| Binder | stoichiometry N (Asf1 (1–154) [1]) | Ka (Asf1 (1–154) [2]) [M⁻¹] | Kd (Asf1 (1–154) [2]) [nM] | dH (Asf1 (1–154) [2]) [kcal/mol] | binding result [3] | binding result [4] |
| --- | --- | --- | --- | --- | --- | --- |
| H (232–358) (domain or fragment, Drosophila melanogaster, UniProt Q02308 232-358, looked up, Hairless (H), Drosophila, residues 232-358; His-SUMO fusion from a modified pET-28b+ vector; also called Hairless 232–358) GGRLQFFKDGKFILELARSKDGDKSGWVSVTRKTFRPPSAATSATVTPTSAVTTAYPKNENSTSLSFSDDNSSIQSSPWQRDQPWKQSRPRRGISKELSLFFHRPRNSTLGRAALRTAARKRRRPHE | 1 | 250000 | 4200 | -8.6 |  |  |
| PWKQSRPRRGISKELSLFFHRPRNSTLGRAALRTAARKRRRPHE (domain or fragment, Drosophila melanogaster, UniProt Q02308 315-358, looked up, Hairless (H), Drosophila, residues 315-358; His-SUMO fusion from a modified pET-28b+ vector; also called Hairless 315–358) [H (315–358)] |  | 680000 | 1700 | -8.7 |  |  |
| NTCTmyc-MBP (Hairless Ser 212 - Ile 369) (domain or fragment, Drosophila melanogaster, UniProt Q02308 212-369, looked up, Hairless (H), Drosophila melanogaster, NTCT region Ser 212 - Ile 369; source: E. coli UT580, purified (amylose beads); not shown: Myc, N-terminal, kept) SFDMGRTPISTHGNNSWGGYGGRLQFFKDGKFILELARSKDGDKSGWVSVTRKTFRPPSAATSATVTPTSAVTTAYPKNENSTSLSFSDDNSSIQSSPWQRDQPWKQSRPRRGISKELSLFFHRPRNSTLGRAALRTAARKRRRPHEPLTTSEDQQPI |  |  |  |  | binds | binds |
| Hairless 315–369 myc-MBP (domain or fragment, Drosophila melanogaster, UniProt Q02308 315-369, looked up, Hairless (H), Drosophila melanogaster, residues 315-369; also called aa 315–369; source: E. coli UT580, purified (amylose beads); not shown: Myc, N-terminal, kept) PWKQSRPRRGISKELSLFFHRPRNSTLGRAALRTAARKRRRPHEPLTTSEDQQPI |  |  |  |  | binds |  |
